One experiment has as its target T1, human CLDN2 (human, UniProt P57739 1-230).
T1 construct: whole, on cells; also called hCLDN2
T1 sequence (looked up): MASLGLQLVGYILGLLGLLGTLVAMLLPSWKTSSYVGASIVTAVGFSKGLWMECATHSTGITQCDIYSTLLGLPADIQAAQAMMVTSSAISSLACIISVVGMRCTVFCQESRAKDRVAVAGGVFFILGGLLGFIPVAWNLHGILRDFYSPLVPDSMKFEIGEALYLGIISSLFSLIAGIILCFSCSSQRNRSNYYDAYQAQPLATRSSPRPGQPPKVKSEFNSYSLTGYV
Put plainly: FACS on HEK293 cells transiently expressing human CLDN2.

In experiment [1] the target is T2, human CLDN18.2 (human).
T2 construct: the HEK293 line was made with a GenScript plasmid; also called hCLDN18.2
Put plainly: competition FACS on HEK293/hCLDN18.2 cells; competitor 10 nM biotinylated PR000400.
Description: This example is to study the binding of anti-human CLDN18.2 bispecific antibodies to the epitope region of a human CLDN18.2 antigen. Competitive binding experiments were performed at the cellular level using human CLDN18.2-overexpressing HEK293/hCLDN18.2 cells. […] The mixture was well mixed and incubated at 4° C. for 30 min. 25 μL of the corresponding serially diluted non-biotinylated anti-human CLDN18.2 antibody was added. The mixture was well mixed and incubated at 4° C. for 1 h. The cells in each well were washed twice with 200 μL of pre-cooled FACS buffer (2% BSA in DPBS) and centrifuged at 500 g at 4° C. for 5 min, and then the supernatant was discarded. A fluorescent secondary antibody (Jackson ImmunoResearch, 016-540-084, 1:500) was added. The mixture was incubated at 4° C. in the absence of light for 1 h. The cells in each well were washed twice with 200 μL of pre-cooled FACS buffer (2% BSA in DPBS) and centrifuged at 500 g at 4° C. for 5 min, and then the supernatant was discarded. Finally, the cells in each well were resuspended in 200 μL of pre-cooled FACS buffer, and the fluorescence signal values were read using a ACEA_NovoCyte.

The target in experiment [2] is T2, human CLDN18.2. Description: FACS on HEK293/hCLDN18.2 cells.
Description: Antibodies were assayed for binding affinity by FACS. Test cells include HEK293/hCLDN18.2, HEK293/hCLDN18.1, NUGC4_D8 and Jurkat cells. […] The cell density was adjusted to 10⁶ cells/mL, and 50 μL of the cell suspension was added to each well of a 96-well plate. Antibodies were diluted to different concentrations with FACS buffer, and 50 μL of the antibody dilution was added to each well of the 96-well plate. After 2 h of incubation at 4° C., the plate was washed twice with FACS buffer. […] After 1 h of incubation at 4° C., the plate was washed twice with FACS buffer. The cells were resuspended in fixative solution, and then the fluorescence of the cells was monitored using an FACS instrument (ACEA NovoCyte).
In experiment [3] the target is T2, human CLDN18.2. Description: cell-based or functional assay.
The target in a further experiment is T3, Human CD64 (human, UniProt P12314 16-288, limits assumed).
T3 construct: bought recombinant protein
Description: BLI (Octet), antibody on FAB2G sensor. For orientation: BLI is a label-free optical method that tracks binding on a fibre tip over time.

The target in another experiment is T4, Human CD32b (human, UniProt P31994 46-217, limits assumed).
T4 sequence (looked up): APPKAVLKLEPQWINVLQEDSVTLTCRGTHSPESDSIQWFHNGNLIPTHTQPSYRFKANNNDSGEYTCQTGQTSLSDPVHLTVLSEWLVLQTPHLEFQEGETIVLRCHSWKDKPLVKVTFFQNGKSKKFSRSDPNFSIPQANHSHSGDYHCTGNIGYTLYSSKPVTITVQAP
Description: BLI (Octet), antibody on FAB2G sensor.

Another experiment addresses Human CD16a(F) (human, UniProt P08637 17-208). Put plainly: BLI (Octet), antibody on FAB2G sensor.
In the next experiment the target is T5, Human CD32a(H) (human, UniProt P12318 36-218, limits assumed).
T5 sequence (looked up): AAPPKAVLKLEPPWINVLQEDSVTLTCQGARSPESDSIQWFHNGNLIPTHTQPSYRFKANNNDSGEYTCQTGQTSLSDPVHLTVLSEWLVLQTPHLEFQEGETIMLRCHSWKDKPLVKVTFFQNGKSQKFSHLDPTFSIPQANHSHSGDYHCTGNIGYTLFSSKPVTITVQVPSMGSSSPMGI
Put plainly: BLI (Octet), antibody on FAB2G sensor.

The target of the next experiment is Human CD16a(V) (human, UniProt P08637 17-208). Description: BLI (Octet), antibody on FAB2G sensor.

Numbering of substitutions follows the chain as printed. Names may count otherwise.

From patent US20250340631A1 (HARBOUR BIOMED SHANGHAI, published 2025) come the findings set out here.

Human CD16a(V), sequence (P08637 17-208 F176V limits assumed): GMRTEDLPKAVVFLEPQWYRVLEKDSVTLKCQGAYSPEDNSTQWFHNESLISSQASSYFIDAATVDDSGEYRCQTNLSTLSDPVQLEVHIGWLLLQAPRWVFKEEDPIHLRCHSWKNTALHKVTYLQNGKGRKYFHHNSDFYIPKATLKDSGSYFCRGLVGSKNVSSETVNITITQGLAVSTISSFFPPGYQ
Human CD16a(F), sequence (P08637 17-208 limits assumed): as the sequence (P08637 17-208 F176V limits assumed) above, with V160F counted along it
T3 sequence (P12314 16-288 limits assumed): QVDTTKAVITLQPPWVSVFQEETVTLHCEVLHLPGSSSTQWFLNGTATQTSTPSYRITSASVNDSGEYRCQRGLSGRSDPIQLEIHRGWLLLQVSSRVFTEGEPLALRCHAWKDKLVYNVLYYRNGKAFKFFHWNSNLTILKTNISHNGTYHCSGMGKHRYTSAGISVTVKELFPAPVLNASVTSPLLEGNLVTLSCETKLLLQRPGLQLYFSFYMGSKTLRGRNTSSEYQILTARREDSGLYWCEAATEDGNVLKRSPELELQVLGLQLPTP
Description for Human CD16a(F): (§1) The binding kinetics between proteins and antibodies was analyzed by the Biolayer Interferometry (BLI) technique using an Octet Red 96e (Fortebio) system. The rotation speed was set at 1000 rpm for the system. […] After equilibrated in the buffer for 120 s, the FAB2G sensor was allowed to bind to 2-fold serially diluted human Fc receptor protein. Finally, the FAB2G sensor was immersed in a 10 mM glycine-hydrochloric acid solution at pH 1.5 for regeneration to elute the proteins bound to the sensor. The affinity assays of antibodies for FcRn were performed under the conditions of both pH 6.0 buffer and pH 7.4 buffer. […] For the interactions of fast binding and fast dissociation, the “steady state” method was selected to fit the data to obtain KD(M) values.
Description for Human CD16a(V): as §1
Description for Human CD32a(H): as §1
Description for Human CD32b: as §1
Description for Human CD64: as §1
Description for human CLDN2: Antibodies were assayed for binding affinity to human CLDN18.2 paralogous proteins by FACS (ACEA NovoCyte). CLDN1, CLDN2, CLDN3, CLDN4, CLDN6 and CLDN9 genes of the human CLDN18.2 paralogous family were transiently transfected into HEK293 cells. […] The cell density was adjusted to 10⁶ cells/mL, and 50 μL of the cell suspension was added to each well of a 96-well plate. An antibody was diluted to 60 nM with FACS buffer, and 50 μL of the antibody dilution was added to each well of the 96-well plate. After 2 h of incubation at 4° C., the plate was washed twice with FACS buffer. Then, an FACS buffer containing a secondary antibody was added. After 1 h of incubation at 4° C., the plate was washed twice with FACS buffer. The cells were resuspended in fixative solution, and run FACS.

B1: PR006292 (bispecific antibody, human IgG1, lambda)
chain: EVQLVESGGGLVQPGGSLRLSCAASGFTFSSYWMHWVRQVPGKGLVWVSRISSDASRTIYADSVKGRFTISRDNAKNTLYLQMNSLRAEDTAVYYCARGEDHDILTGYPIRGQGTTVTVSSGGGGSGGGGSGGGGSEVQLVESGGGLVQPGGSLRLSCAASGFTFSSYWMHWVRQVPGKGLVWVSRISSDASRTIYADSVKGRFTISRDNAKNTLYLQMNSLRAEDTAVYYCARGEDHDILTGYPIRGQGTTVTVSSASEPKSSDKTHTCPPCPAPEAAGAPSVFLFPPKPKDTLMISRTPEVTCVVVDVSHEDPEVKFNWYVDGVEVHNAKTKPREEQYNSTYRVVSVLTVLHQDWLNGKEYKCKVSNKALPAPIEKTISKAKGQPREPQVCTLPPSREEMTKNQVSLSCAVKGFYPSDIAVEWESNGQPENNYKTTPPVLDSDGSFFLVSKLTVDKSRWQQGNVFSCSVMHEALHNHYTQKSLSLSPGK
heavy: EVQLVESGGGLVQPGGSLKLSCAASGFTFSTYAMNWVRQASGKGLEWVGRIRSKYNNYATYYADSVKDRFTISRDDSKNTAYLQMNSLKTEDTAVYYCTRHGNFGNSYVSWFAYWGQGTLVTVSSASTKGPSVFPLAPSSKSTSGGTAALGCLVKDYFPEPVTVSWNSGALTSGVHTFPAVLQSSGLYSLSSVVTVPSSSLGTQTYICNVNHKPSNTKVDKKVEPKSCDKTHTCPPCPAPEAAGAPSVFLFPPKPKDTLMISRTPEVTCVVVDVSHEDPEVKFNWYVDGVEVHNAKTKPREEQYNSTYRVVSVLTVLHQDWLNGKEYKCKVSNKALPAPIEKTISKAKGQPREPQVYTLPPCREEMTKNQVSLWCLVKGFYPSDIAVEWESNGQPENNYKTTPPVLDSDGSFFLYSKLTVDKSRWQQGNVFSCSVMHEALHNHYTQKSLSLSPGK
light: QAVVTQEPSLTVSPGGTVTLTCRSSTGAVTTSNYANWVQQKPGQAPRGLIGGTNKRAPWTPARFSGSLLGDKAALTLLGAQPEDEAEYFCALWYSNLWVFGGGTKLTVLGQPKAAPSVTLFPPSSEELQANKATLVCLISDFYPGAVTVAWKADSSPVKAGVETTTPSKQSNNKYAASSYLSLTPEQWKSHRSYSCQVTHEGSTVEKTVAPTECS
notes: structure 1; CD3 Fab from PR003886, CLDN18.2 VH from PR007245; IgG1 knob/hole, AAA (L234A, L235A, G237A)
The term IC50 denotes the point on the concentration scale where inhibition reaches its midpoint. One may read the EC50 as the concentration that produces a half-maximal response. Higher therefore signals a less potent agent. B1: the binding result in the experiment with human CLDN2 is listed as “no binding”; with Human CD64, “no binding (tested: 800-50 nM)”; with Human CD32b, “no binding (tested: 10000-625 nM)”; in the experiment with Human CD16a(F), “no binding (tested: 10000-625 nM)”; in the experiment with Human CD32a(H), “no binding (tested: 10000-625 nM)”; in the experiment with Human CD16a(V), “no binding (tested: 6000-375 nM)”. This molecule displayed an IC50 with human CLDN18.2 [1] of 87.7 nM. For the same molecule, the “Maximum inhibition rate (%)” value with human CLDN18.2 [1] is 97.7%. This molecule also returned an EC50 with human CLDN18.2 [2] of 11.5 nM. Moreover, the “CDC, EC50 (nM), HEK293/hCLDN18.2” value with human CLDN18.2 [3] amounted to 37.1 nM.

B2: PR006384 (bispecific antibody, human IgG1, lambda)
chain: B1 chain with D54T, A55G, D190T, A191G
heavy: B1 heavy
light: B1 light
notes: structure 1; CD3 Fab from PR003886, CLDN18.2 VH from PR007246; AAA
As for B2, the binding result is recorded as “no binding” with human CLDN2; “no binding (tested: 800-50 nM)” in the experiment with Human CD64; “no binding (tested: 10000-625 nM)” in the experiment with Human CD32b; “no binding (tested: 10000-625 nM)” with Human CD16a(F); “no binding (tested: 10000-625 nM)” with Human CD32a(H); “no binding (tested: 6000-375 nM)” in the experiment with Human CD16a(V). For the same molecule, the IC50 with human CLDN18.2 [1] was 103 nM. In the experiment with human CLDN18.2 [1], the “Maximum inhibition rate (%)” value worked out at 97.8%. In addition, the response in the experiment with human CLDN18.2 [2] was half-maximal at 14.4 nM (EC50).
